Results as given in the supplement of paper PMC9732359.
± gives the uncertainty stated by the source.

Assay: protein stability index of a GFP-peptide fusion (yeast GPS) (PSI 1-4); higher = more stable; sorted into four equal gates, so the index is relative within each strain
Method in brief: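 The protein stability index of a peptide was calculated by multiplying its read frequency in each gate by that gate's number and adding the products. The peptides were tiled 17-residue stretches of yeast proteins, fused downstream of GFP on a Cherry-expressing plasmid and carried in yeast as a pooled library. Mid-log cultures in leucine-free medium were sorted into four equal gates by GFP/Cherry ratio, and each gate's plasmids were PCR-amplified and Illumina-sequenced.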

Sequence | protein stability index (doa10∆) | protein stability index (pdr5∆) | protein stability index (san1∆) | protein stability index (ubr1∆)
YKENEAMLRENIEVILS [SNF12] | 2.42 ± 0.053 | 2.73 ± 0.071 | 2.84 ± 0.046 | 2.53 ± 0.057
NYSSLPSPYKTTVYRYS [YAR002W/NUP60] | 2.04 ± 0.045 | 2.27 ± 0.038 | 1.71 ± 0.057 | 1.91 ± 0.034
STSIQYHGISKNDNIKK [POP6] | 2.79 ± 0.068 | 2.9 ± 0.055 | 2.89 ± 0.043 | 2.92 ± 0.05
LPGTNNNSNSNNNSSNE [SEC65] | 2.93 ± 0.051 | 2.69 ± 0.054 | 2.89 ± 0.042 | 2.8 ± 0.049
NLQKIDKDSEELDSKTR [MED4] | 2.73 ± 0.091 | 2.98 ± 0.071 | 2.94 ± 0.078 | 3.09 ± 0.053
EIPSEDQNEFLLERTRE [FAS2] | 3.33 ± 0.094 | 3.3 ± 0.12 | 3.35 ± 0.081 | 3.22 ± 0.079
KGSRKSSKAATPDTKNF [SNF12] | 3 ± 0.063 | 2.87 ± 0.052 | 3 ± 0.058 | 2.98 ± 0.042
KDMSPILGELKRVKSYM [LRP1] | 2.43 ± 0.062 | 2.74 ± 0.056 | 2.51 ± 0.059 | 2.97 ± 0.038
NDNENIVNNDLPTTVVS [MED2] | 2.55 ± 0.053 | 2.8 ± 0.05 | 2.63 ± 0.042 | 2.89 ± 0.039
SFFVSVRKAITVLFFIG [FAS1] | 1.48 ± 0.087 | 1.34 ± 0.11 |  | 1.09 ± 0.041
FILIPLYKIFSYALSME [SNU114] | 1.65 ± 0.042 | 1.45 ± 0.037 | 1.46 ± 0.075 | 1.68 ± 0.031
AGVSHGTLGEIFIRCNN [SMX3] | 3.57 ± 0.14 | 3.37 ± 0.096 | 2.91 ± 0.094 | 3.29 ± 0.08
PAALDGLMKSYKIPKVM [ESC2] | 2.76 ± 0.068 | 2.94 ± 0.12 | 2.85 ± 0.061 | 3.45 ± 0.088
YGPSFTKRESLNARMFL [SIR2] | 1.85 ± 0.068 | 2.42 ± 0.049 | 2.22 ± 0.08 | 1.65 ± 0.036
VKLYGREGSSARTIKAT [RPB2] | 2.47 ± 0.12 | 3.36 ± 0.12 | 3.25 ± 0.088 | 3.29 ± 0.19
EINWRHASFLCSFITQD [FAS1] | 2.1 ± 0.15 | 2.42 ± 0.12 | 2.17 ± 0.21 | 2.14 ± 0.15
AFSPLTTTRIQSQQAQP [MED2] | 2.7 ± 0.055 | 2.83 ± 0.044 | 2.52 ± 0.061 | 2.8 ± 0.036
EKPAVKSYASLLAQLNG [RPT3] | 2.8 ± 0.082 | 2.6 ± 0.097 | 2.81 ± 0.082 | 2.76 ± 0.057
NIAQMIPGMSNMMNQVG [SRP54] | 2.47 ± 0.064 | 2.6 ± 0.076 | 2.67 ± 0.06 | 2.7 ± 0.078
TSTITKYKQLLLKDDTY [RPN3] | 2.71 ± 0.12 | 2.73 ± 0.15 | 2.89 ± 0.073 | 2.9 ± 0.084
KVNSRDDSFFNETNDKK [PRP28] | 2.82 ± 0.12 | 3.1 ± 0.11 | 3.04 ± 0.13 | 2.94 ± 0.12
TALKQYEKELMGDELTR [RPN6] | 3.26 ± 0.13 | 3.54 ± 0.15 | 3.42 ± 0.077 | 3.51 ± 0.12
SGAYSYPDFRHYGLAVD [DIS3] | 1.82 ± 0.047 | 2.56 ± 0.056 | 2.42 ± 0.089 | 2.67 ± 0.043
FITTLLKSLYSFFNISP [SIN4] | 2.26 ± 0.042 | 1.5 ± 0.037 | 1.46 ± 0.057 | 1.53 ± 0.034
QAYFSRLELPVDFQNDL [BRR2] | 2.65 ± 0.15 | 2.1 ± 0.064 | 2.54 ± 0.066 | 2.32 ± 0.044
LTKLNEDDLVGVVQMVT [TAF14] | 2.89 ± 0.086 | 3.18 ± 0.074 | 3.02 ± 0.065 | 2.98 ± 0.063

Sequence | protein stability index (doa10∆) | protein stability index (pdr5∆) | protein stability index (san1∆) | protein stability index (ubr1∆)
MTKTITVAHIQYDFKAV [RPN14] | 2.42 ± 0.083 | 3.09 ± 0.095 | 2.4 ± 0.063 | 2.71 ± 0.043
LRLTRINSGTFVKVTKA [RPL7A] | 1.89 ± 0.1 |  | 1.43 ± 0.28 | 
HQPITSEQKMKEDADLK [SIR4] | 2.88 ± 0.058 | 3.36 ± 0.1 | 3.42 ± 0.063 | 3.26 ± 0.073
SGGLFGNQQQQLQQQPQ [YGL172W/NUP49] | 2.88 ± 0.13 | 2.61 ± 0.15 | 2.89 ± 0.093 | 3 ± 0.12
SSIHWNNWFSLPGDMLA [SIN4] | 2.56 ± 0.061 | 1.88 ± 0.055 | 1.71 ± 0.11 | 1.93 ± 0.041
PVKQSFIRKYINQKALR [GAL11] | 1.61 ± 0.12 | 1.59 ± 0.07 | 1.61 ± 0.099 | 1.77 ± 0.08
NEGAASSNPQSAYVKAF [SMC1] | 2.62 ± 0.051 | 2.6 ± 0.053 | 2.5 ± 0.032 | 2.69 ± 0.027
NSKVNKLNIETMRKISS [DSN1] | 2.5 ± 0.17 | 2.43 ± 0.11 | 2.13 ± 0.12 | 2.95 ± 0.07
IRGIVKQIVHDSGRGAP [RPL2A] | 1.76 ± 0.07 | 1.88 ± 0.065 | 2.79 ± 0.047 | 2.12 ± 0.07
LPYNWDALEMQWRYLYD [ARP7] | 2.1 ± 0.065 | 2.1 ± 0.073 | 2.44 ± 0.11 | 2.19 ± 0.068
FTGQGSQEQGMGMDLYK [FAS1] | 3.28 ± 0.12 | 3.4 ± 0.093 | 3.41 ± 0.1 | 3.4 ± 0.088
GASIIQVIFEIFEISLQ [YML103C/NUP188] | 1.53 ± 0.046 | 1.82 ± 0.044 | 2.1 ± 0.065 | 2.06 ± 0.043
MAGLKDVVTREYTINLH [RPL31A] | 3.02 ± 0.15 | 3.06 ± 0.14 | 3.01 ± 0.08 | 3.29 ± 0.16
LTKKEKKEANLFPEQQT [RPL6B] | 3.08 ± 0.073 | 3.21 ± 0.072 | 3.25 ± 0.06 | 3.15 ± 0.049
NNNVTAVPAATPANTNN [SWI1] | 2.79 ± 0.046 | 3.08 ± 0.046 | 2.76 ± 0.032 | 2.98 ± 0.042
GRGRGRGRPPKARNGLD [SNF2] | 3.13 ± 0.084 | 3.17 ± 0.075 | 3.29 ± 0.047 | 3.33 ± 0.057
GISLVMEIVANAKESNY [MED1] | 1.77 ± 0.065 | 1.98 ± 0.069 | 2.28 ± 0.085 | 2.15 ± 0.043
VALTSFLGYKAGMTTIV [RPL3] | 2.96 ± 0.11 | 2.75 ± 0.077 | 2.69 ± 0.078 | 2.85 ± 0.094
LKSAENSGKQQYYRGLP [SWP82] | 2.25 ± 0.1 | 2.24 ± 0.067 | 2.25 ± 0.21 | 2.75 ± 0.068
AESFTDEADSSMTEASV [SNF2] | 3.36 ± 0.094 | 3.19 ± 0.092 | 3.39 ± 0.05 | 3.09 ± 0.089
PQKNLLLKGPASTVAKT [YOR098C/NUP1] | 2.73 ± 0.057 | 2.94 ± 0.041 | 2.68 ± 0.054 | 2.83 ± 0.055
FTQQELQKQMGIGSLTD [RPC34] | 2.22 ± 0.088 | 2.39 ± 0.11 | 2.33 ± 0.17 | 2.48 ± 0.11
REIVMPAHTKYMLIEEA [ITC1] | 3.2 ± 0.1 | 3.42 ± 0.1 | 3.03 ± 0.071 | 3.31 ± 0.13
EEYLDANVFRLENQKDL [MTW1] | 3.4 ± 0.081 | 3.38 ± 0.087 | 3.28 ± 0.057 | 3.3 ± 0.044
TAPSSERRVLLSAPLSK [RPL26B] | 1.86 ± 0.041 | 2.4 ± 0.044 | 2.66 ± 0.062 | 2.08 ± 0.044
KIQQQQPGYADLEHKED [QCR6] | 2.51 ± 0.062 | 2.71 ± 0.071 | 2.69 ± 0.069 | 2.69 ± 0.044
